Source: patent publication US7056508 (NEW YORK UNIVERSITY, dated 2006)

B1: murine receptor-type protein tyrosine phosphatase-κ (RPTPκ) precursor protein (receptor)
chain: ALGQFSAGGCTFDDGPGACDYHQDLYDDFEWVHVSAQEPHYLPPEMPQGSYMVVDSSNHDPGEKARLQLPTMKENDTHCIDFSYLLYSQKGLNPGTLNILVRVNKGPLANPIWNVTGFTGRDWLRAELAVSTFWPNEYQVIFEAEVSGGRSGYIAIDDIQVLSYPCDKSPHFLRLGDVEVNAGQNATFQCIATGRDAVHNKLWLQRRNGEDIPVAQTKNINHRRFAASFRLQEVTKTDQDLYRCVTQSERGSGVSNFAQLIVREPPRPIAPPQLLGVGPTYLLIQLNANSIIGDGPIILKEVEYRMTSGSWTETHAVNAPTYKLWHLDPDTEYEIRVLLTRPGEGGTGLPGPPLITRTKCAEPMRTPKTLKIAEIQARRIAVDWESLGYNITRCHTFNVTICYHYFRGHNESRADCLDMDPKAPQHVVNHLPPYTNVSLKMILTNPEGRKESEETIIQTDEDVPGPVPVKSLQGTSFENKIFLNWKEPLEPNGIITQYEVSYSSIRSFDPAVPVAGPPQTVSNLWNSTHHVFMHLHPGTTYQFFIRASTVKGFGPATAINVTTNISAPSLPDYEGVDASLNETATTITVLLRPAQAKGAPISAYQIVVEQLHPHRTKREAGAMECYQVPVTYQNALSGGAPYYFAAELPPGNLPEPAPFTVGDNRTYKGFWNPPLAPRKGYNIYFQAMSSVEKETKTQCVRIATKAAATEEPEVIPDPAKQTDRVVKIAGISAGILVFILLLLVVIVIVKKSKLAKKRKDAMGNTRQEMTHMVNAMDRSYADQSTLHAEDPLSLTFMDQHNFSPRLPNDPLVPTAVLDENHSATAESSRLLDVPRYLCEGTESPYQTGQLHPAIRVADLLQHINLMKTSDSYGFKEEYESFFEGQSASWDVAKKDQNRAKNRYGNIIAYDHSRVILQPVEDDPSSDYINANYIDIWLYRDGYQRPSHYIATQGPVHETVYDFWRMVWQEQSACIVMVTNLVEVGRVKCYKYWPDDTEVYGDFKVTCVEMEPLAEYVVRTFTLERRGYNEIREVKQFHFTGWPDHGVPYHATGLLSFIRRVKLSNPPSAGPIVVHCSAGAGRTGCYIVIDIMLDMAEREGVVDIYNCVKALRSRRINMVQTEEQYIFIHDAILEACLCGETAIPVCEFKAAYFDMIRIDSQTNSSHLKDEFQTLNSVTPRLQAEDCSIACLPRNHDKNRFMDMLPPDRCLPFLITIDGESSNYINAALMDSYRQPAAFIVTQYPLPNTVKDFWRLVYDYGCTSIVMLNEVDLSQGCPQYWPEEGMLRYGPIQVECMSCSMDCDVINRIFRICNLTRPQEGYLMVQQFQYLGWASHREVPGSKRSFLKLILQVEKWQEECEEGEGRTIIHCLNGGGRSGMFCAIGIVVEMVKRQNVVDVFHAVKTLRNSKPNMVEAPEQYRFCYDVALEYLESS
notes: Full-length cDNA expressed in HeLa, COS, Drosophila S2 and rat L6 cells, tested on cells or in their lysates; It is partly cleaved at RTKR (640-643) into 110 kDa and 100 kDa products; also called RPTPase-κ; wt RPTPκ

Legend:
[1] = target: [32P]-tyrosine phosphorylated myelin basic protein; assay: cell-based or functional assay
Chain of [32P]-tyrosine phosphorylated myelin basic protein (P02687 whole entry): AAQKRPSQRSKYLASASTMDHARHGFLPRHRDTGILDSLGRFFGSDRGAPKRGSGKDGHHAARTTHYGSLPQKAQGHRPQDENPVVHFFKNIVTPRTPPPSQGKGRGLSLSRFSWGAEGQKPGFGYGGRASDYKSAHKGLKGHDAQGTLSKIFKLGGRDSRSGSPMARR

[2] = target: the molecule itself; assay: co-aggregation of diI-labelled and unlabelled S2 cells, fluorescence microscopy
Source text: FIGS. 23A–23C. […] Two different cell populations, one of which had been labeled with the fluorescent dye diI (J. Schiessinger et al. Science 195, 307, (1977)), were allowed to co-aggregate and the resulting aggregates inspected by visible and fluorescence microscopy. diI-fluorescence is white in the photographs.

[3] = target: B1; assay: cell-to-substrate adhesion, L6 cells on a K2AP-coated surface
[4] = target: B1; assay: cell-to-substrate adhesion, induced S2-R-PTP-κ cells on the coated dish

For B1, the “PTPase activity in immune complexes (release of [32P]-phosphate)” value [1] was ~3 fold and the binding result [2] was “binds”.

B2: K2AP fusion protein (amino acids 1-639 of the RPTPκ proprotein fused to human placental alkaline phosphatase) (other)
chain: ALGQFSAGGCTFDDGPGACDYHQDLYDDFEWVHVSAQEPHYLPPEMPQGSYMVVDSSNHDPGEKARLQLPTMKENDTHCIDFSYLLYSQKGLNPGTLNILVRVNKGPLANPIWNVTGFTGRDWLRAELAVSTFWPNEYQVIFEAEVSGGRSGYIAIDDIQVLSYPCDKSPHFLRLGDVEVNAGQNATFQCIATGRDAVHNKLWLQRRNGEDIPVAQTKNINHRRFAASFRLQEVTKTDQDLYRCVTQSERGSGVSNFAQLIVREPPRPIAPPQLLGVGPTYLLIQLNANSIIGDGPIILKEVEYRMTSGSWTETHAVNAPTYKLWHLDPDTEYEIRVLLTRPGEGGTGLPGPPLITRTKCAEPMRTPKTLKIAEIQARRIAVDWESLGYNITRCHTFNVTICYHYFRGHNESRADCLDMDPKAPQHVVNHLPPYTNVSLKMILTNPEGRKESEETIIQTDEDVPGPVPVKSLQGTSFENKIFLNWKEPLEPNGIITQYEVSYSSIRSFDPAVPVAGPPQTVSNLWNSTHHVFMHLHPGTTYQFFIRASTVKGFGPATAINVTTNISAPSLPDYEGVDASLNETATTITVLLRPAQAKGAPISAYQIVVEQLHPH
notes: Secreted from baculovirus-infected High-Five cells and about 90% pure; K2AP-a was eluted at alkaline pH and K2AP-b with 50% ethylene glycol; they are the same protein; also called K2AP-a; K2AP-b; not shown: human placental alkaline phosphatase, fused in-frame as a tag
With B2 the “fold increase in adhesive capacity (RPTPκ-overexpressing L6 cells against parental L6 cells)” value [3] was 2.7 fold.

B3: secreted alkaline phosphatase (AP) control protein (enzyme, human, UniProt P05187 23-511, looked up)
chain: IIPVEEENPDFWNREAAEALGAAKKLQPAQTAAKNLIIFLGDGMGVSTVTAARILKGQKKDKLGPEIPLAMDRFPYVALSKTYNVDKHVPDSGATATAYLCGVKGNFQTIGLSAAARFNQCNTTRGNEVISVMNRAKKAGKSVGVVTTTRVQHASPAGTYAHTVNRNWYSDADVPASARQEGCQDIATQLISNMDIDVILGGGRKYMFRMGTPDPEYPDDYSQGGTRLDGKNLVQEWLAKRQGARYVWNRTELMQASLDPSVTHLMGLFEPGDMKYEIHRDSTLDPSLMEMTEAALRLLSRNPRGFFLFVEGGRIDHGHHESRAYRALTETIMFDDAIERAGQLTSEEDTLSLVTADHSHVFSFGGYPLRGSSIFGLAPGKARDRKAYTVLLYGNGPGYVLKDGARPDVTESESGSPEYRQQSAVPLDEETHAGEDVAVFARGPQAHLVHGVQEQTFIAHVMAFAACLEPYTACDLAPPAGTTDAAHPG
notes: About 50% pure; also called alkaline phosphatase control protein
B3: no binding (tested: 20 g/ml (so in the source) spotted) [4].
